Reference: patent US10835618 (UNIVERSITY OF NOTTINGHAM, dated 2020)

B1: CH129 (chimeric FG129, mouse variable regions on human IgG1/kappa constant regions) (antibody)
heavy: not shown
light: DIVMTQSPSSLTVTAGEKVTMSCKSSQSLLNSGNQKNYLTWYQQKPGQPPKVLIYWASTRESGVPDRFTGSGSGTDFTLTISSVQAEDLAVYYCQNDYSSPFTFGSGTKLEIKRTVAAPSVFIFPPSDEQLKSGTASVVCLLNNFYPREAKVQWKVDNALQSGNSQESVTEQDSKDSTYSLSSTLTLSKADYEKHKVYACEVTHQGLSSPVTKSFNRGEC
notes: Expressed in CHO-S or HEK293 cells and purified on protein G
B2: FG129-scFv (scFv)
scFv: EVQLVESGGGLVQPKGSLKLSCAASGFTFNTYAMNWVRQAPGKGLEWVARIRSKSNNYATYYADSVKDRFTISRDDSQSMLYLQMNNLKKEDTAMYYCVGYGSGGNYWGQGTSVTVSGGGGSGGGGSGGGGSDIVMTQSPSSLTVTAGEKVTMSCKSSQSLLNSGNQKNYLTWYQQKPGQPPKVLIYWASTRESGVPDRFTGSGSGTDFTLTISSVQAEDLAVYYCQNDYSSPFTFGSGTKLEIKRAAAAAAHHHHHH
notes: Order is leader, VH, 3xGGGGS, VL, 6xAla, 6xHis; The leader is left out as secreted from Expi293 cells; also called scFv129
B3: FG129 mAb (mouse FG129/29 IgG1 kappa) (antibody)
heavy: EVQLVESGGGLVQPKGSLKLSCAASGFTFNTYAMNWVRQAPGKGLEWVARIRSKSNNYATYYADSVKDRFTISRDDSQSMLYLQMNNLKKEDTAMYYCVGYGSGGNYWGQGTSVTVSSAKTTPPSVYPLAPGSAAQTNSMVTLGCLVKGYFPEPVTVTWNSGSLSSGVHTFPAVLESDLYTLSSSVTVPSSPRPSETVTCNVAHPASSTKVDKKIVPRDCGCKPCICTVPEVSSVFIFPPKPKDVLTITLTPKVTCVVVDISKDDPEVQFSWFVDDVEVHTAQTQPREEQFNSTFRSVSELPIMHQDWLNGKEFKCRVNSAAFPAPIEKTISKTKGRPKAPQVYTIPPPKEQMAKDKVSLTCMITDFFPEDITVEWQWNGQPAENYKNTQPIMNTNGSYFVYSKLNVQKSNWEAGNTFTCSVLHEGLHNHHTEKSLSHSPGK
light: DIVMTQSPSSLTVTAGEKVTMSCKSSQSLLNSGNQKNYLTWYQQKPGQPPKVLIYWASTRESGVPDRFTGSGSGTDFTLTISSVQAEDLAVYYCQNDYSSPFTFGSGTKLEIKRADAAPTVSIFPPSSEQLTSGGASVVCFLNNFYPKDINVKWKIDGSERQNGVLNSWTDQDSKDSTYSMSSTLTLTKDEYERHNSYTCEATHKTSTSPIVKSFNRNEC
notes: Murine IgG1k from a hybridoma; It recognises the glycans sialyl-di-Lewis a, sialyl-Lewis a-x and mono-sialyl-Lewis a on glycoproteins; also called mAb FG129; F129/29

Key:
HCT-15 = target: T1, HCT-15; experiment: flow cytometry titration on HCT-15 cells, geometric mean against antibody concentration [panel FACS - HCT-15]
T1 construct: Group of unnamed glycoproteins on whole cells; also called cell surface of HCT-15 cells

BxPC3 = target: T2, BxPC3; experiment: flow cytometry titration on BxPC3 cells, geometric mean against antibody concentration [panel FACS - BxPC3]
T2 construct: Group of unnamed glycoproteins on whole cells; also called cell surface of BxPC3 cells

LS180 = target: T3, LS180; experiment: flow cytometry titration on LS180 cells, geometric mean against antibody concentration [panel FACS - LS180]
T3 construct: Group of unnamed glycoproteins on whole cells; also called cell surface of LS180 cells

Colo205 [1] = target: T4, Colo205; experiment: flow cytometry titration on Colo205 cells, geometric mean against antibody concentration [panel FACS - Colo205]
T4 construct: Group of unnamed glycoproteins on whole cells; also called cell surface of Colo205 cells

Colo205 [2] = target: T4, Colo205; experiment: flow cytometry titration on Colo205 cells, Gm value against concentration

| Binder | Kd (HCT-15) | Kd (BxPC3) | Kd (LS180) | Kd (Colo205 [1]) | Kd (Colo205 [2]) |
| --- | --- | --- | --- | --- | --- |
| B1 | 15.3 nM | 118 nM | 110 nM | 57.3 nM |  |
| B2 |  |  |  |  | 377 nM |
| B3 | 42.7 nM | 80.2 nM | 67.9 nM | 53.3 nM |  |
